# Measurements taken from the DeepSol protein solubility set.
# Test: soluble on expression in E. coli; label from the status in PepcDB or PDB records
row,Sequence,soluble on expression in E. coli
1,MNVFQMRDKLKARLKHLDVEFKFDREEETLRIVRIDNHKGVTIKLNAIVAKYEEQKEKIIDEICYYVEEAIAQMGDEVINNVEDIQIMPVIRATSFDKETKEGHAFVLTEHTAETNIYYALDLGKSYRLIDENMLQTLNLTAQQVKEMSLFNVRKLECRYSTDEVKGNIFYFINTNDGYDASRILNTSFLNHIQHQCEGEMLVGVPHQDVLILADIRNKTGYDVMAHLTMEFFTKGLVPITSLSFGYDNGHLEPIFILGKNNKQK,not soluble
2,MNVGLSAEVRYHWFREHLVVVGDWHRLSPSERDRLRHQPMPDEAAQSLRVDLSPWSCGMVFSELLGADLTRFGLCYLAPAEVPASDLTRLGRRLREEFPLLDSQVDSGAEGFELVVHGQPEESPALEVGPFADENALIAALLQRPHSLFERGLLRLFHGRCGGRARWGVWLHHLVADADFASVLLARLAVLNADPTTEAAAPEFGFLQQQWRLERQLRERRTRLEDYWSERGEAFRELASLPWAERASHCEDFRLAATPGGGEAALLTRLACALALALASQGATGKVLALTPVSLRSRRGTAVSGCWLNLVPLLLDAATAEDTFERHRLEAFEHSLLPAEAIAERAGLRYADAQVMINVIDQPFHSAGFIHRPTLKSRLPLTLTLVRRDDGGWDASLASRFGRERTLALAAAMAEALRPC,not soluble
3,MNVLKEVYATIEKRIEEKPEGSYVAKLTTDDKKTAVNKICEKVGEEAAEVIIAAKDNDKAEIIYESADLIFHTMVLLAKSGITYEELSEEFKKRMKLEHHHHHH,not soluble
4,MNVLSPHIALYRLFDVADEIDLGRLSTPRLRLSRARLGAVRFENPPGEMELGVRNVEGLSGLLTARLYEFGVVSLSFRIHLGERVPWEAFLEKGLRIPELPFWEGFFLAELAALEPHLRGALLRPEEKRLSEEFVVYHALGLEGEKAFRPSVDLTPLWMGAEEEFAPEVRREVERYRYSYSTEDLALLGFDRVLILDSEGIWDVADLVEFVHAQLLELSYYDRVLTEELELVPQVLRHRGLWGYGRLQRLRRRLMARHAEIADVKARMEGALRITEDLFYAKIYRAALELYGAYELEKSVEEKLRVLEATYEMVTEEVAHLRTQAVEVAILALIAFEVVRALH,soluble
5,MNVMRHSWLAVAGIAGLLAFPPVDACTLWGAAGTASMEGSLLAKNRDWKPDHAQSLRLLHPEHGYAYLGLYADNGSEPGIKAGVNQKGLAVVAAEASSLPRALRADSARHGVLTRLLRDYGSLDEVASAADKLFAQARPVFLLLADAGGLMQVEIGQHGRYRLIRQQSGTLAHTNHYADTSLLDGAQTIGPSSQARLERIRFLLDQHPAHTLSEFERLSRDRHDGPDNSLWRSGREHTLAGWRIALPAGAPPRLQLTLANPGRAERDGDYALDSAFWAQPARTLLPKLAAALEHHHHHH,soluble
6,MNVSVVIPALNEEATVADVVALSRRGSDEVIVIDSDSTDATAARAKAAGASVVNWRDVVSLPPIPGKGEALWRGVAAARGDVVVFLDADLTEISPTIVEDLARPFIDDSVMLAKAAYTRGDASGGGGRVTELTARPLLEAFFPELGFVRQPLGGEYAIRRSAALDLPFVGGYGVEVGLLIDVFRCFGAASIVEVEAGHRGHRHRPLRELAPMARVVASTILQRAGVASGLDGVGQRPAISSLESGVGKV,not soluble
7,MNVTSGMDQILAQLKATSDLAAGGSKPSATVSTVSQADFGQLLKSAVDQVNTVQQTASQLSREFVGGNQDVELHDVMISLQKANVSFQSMIQVRNRLVTAYQEIMNMQV,not soluble
8,MNVVNNSRDVIYSSGIVFGTSGARGLVKDFTPQVCAAFTVSFVAVMQEHFSFDTVALAIDNRPSSYGMAQACAAALADKGVNCIFYGVVPTPALAFQSMSDNMPAIMVTGSHIPFERNGLKFYRPDGEITKHDEAAILSVEDTCSHLELKELIVSEMAAVNYISRYTSLFSTPFLKNKRIGIYEHSSAGRDLYKPLFIALGAEVVSLGRSDNFVPIDTEAVSKEDREKARSWAKEFDLDAIFSTDGDGDRPLIADEAGEWLRGDILGLLCSLALDAEAVAIPVSCNSIISSGRFFKHVKLTKIGSPYVIEAFNELSRSYSRIVGFEANGGFLLGSDICINEQNLHALPTRDAVLPAIMLLYKSRNTSISALVNELPTRYTHSDRLQGITTDKSQSLISMGRENLSNLLSYIGLENEGAISTDMTDGMRITLRDGCIVHLRASGNAPELRCYAEANLLNRAQDLVNTTLANIKKRCLL,not soluble
9,MNYGFVKVAAAVPHVKVADCKFNVERIESQIAIAEGKGVQIIVFPEMSITGYTCGDLFGQQILLEEAEMGLMQILNNTRQLDIISIVGMPVVVNSTVINAAVVIQKGKVLGVAAKTYLPNYKEFYEQRWFTSALQLTEDTVRLCGQIVPIGANLLFETSDTTFGIEICEDLWATIPPSSSLALQGAEIIFNMSADNEGIGKHHYLCSLISQQSARCIAGYVFSSCGFGESTTDVVFAGNGLIYENGSLLARSKRFCMEEQLIISEIDVERIRAERRINTTFAASQGNPGDKKAISVATEFVNSKELTLTRDFNSHPFVPQGAELDEHCEEVFSIQIAGLAQRLVHTKAKTAVVGISGGLDSTLALLVCVKTFDKLGLPRKDILGVTMPGFGTTDRTYNNAIDLMKSLGISIREISIQDACIQHFKDIDHDINVHDVTYENSQARERTQILMDIANQTWGMVVGTGDLSELALGWATYNGDHMSMYGVNGSIPKTLVKYLVQWVAENDMDEDAKATLLDIVDTPISPELIPADENLEHHHHHH,soluble
10,MPADPRNAGKDKGNLQMELQNLLTSARIRKMEYEAIVEELEEDELKYDLFEYQDYLENYIMPYVERAYKNGSKELIGMAEEVKSIFEEIIDMIKARIEKK,not soluble
11,MPAGTRCVTQGEAEKNGMIPTGIFCDYQNGQEMYCYSEGKPDLVISDVWAYNTTPGVYSELRALVYNHGHGYAGKFSVAFFIDGSYVGEVEVNGLGANENTVARISYPHPCEGETDTFAAQVDYHNEVDEENENDNYHESPRIFQCSGGEMPNLEVVEAYIDYQDFCRALNYRNSSIVVVVANTGEQASPQTGGWIYIDGNSRGGFDIPSLQPGEETTISMNFPYMCEGSSDEIRVVVDSRNYVVESNENDNEYTFITDCIPMPSGTADLVVSYLETHVVEELLAGGLSYPLKSEINYTVENLGEDYSCNAEVGLFIDGVFQGQQYLPPLAPGDSITRTFIAKYDWERCSGISDTLTLKADVNNDVAESNENNNERSVTLYCIEYPLIKPDLTVEDVWIEGEGASNLDIVFTVKNIGLAASRATNAYVGVNYNPAGSTPIPPLNAGESVELRISGFTAQWQENTIEVCADSGNLVDEIPNEMNNCLTKTITIEDVGCYDGVRNRDEVGVDCGGYYCVPAALLRLKGDCSIRMTMAAGFQLEHHHHHH,not soluble
12,MPAHQLSDDRAIQGTFMRKRRDSLASVVARDLAGRIERGDYAVGDKIPIEAQLCEMYNVSRTVVREAIATLRSEGLVTSRHGVGVFVEERGNPALSITREAAGELSEVLELLELRLGVEVEAAGLAARRATAEDLRQIREVLEKTDDLEAFAEHRRELDYAFHLAIARASGNSWMPKFMDFIGPVIIPRSQLLHDPQSGITGDYLRQMVEEHRQIVEAIAAGEAAAAQEAMRMHLSTSLERYRRRLTDA,not soluble
13,MPAPDLGFALSLPPKKAIEWLESKKVTAESYRNLTASEIAKVYTIARMTDLDMLNDIKTSMVESAKSGQSFDDWRKGILNLLSNKGWLHPNGHNGKDIIDPATGEVFGSPRRLETIYRTNMQTAYNAGQYQGYMANIDARPYWMYDAVGDSRTRPAHSAIDGLVYRYDDPFWATFYPPNGYNCRCSVIALSERDVERQGRIVGQSTADNLVETHKIYNKKGDTYLTLAYKAPDGSLYTTDRGFDYNAGRMNYRPDLDKYDRALAHQFAKAEMGGADFKTSFKQLEKEFYEVKQRLDIDGKPDKEQKIKIRNALSRQLKFAAGVLSKETQELAGMTRATVWLSDDTLVKQVDSREGQNFDDSYYAFLPDMLQNPEHVIRDNRELIFTARYKGSALWAVLKYIKEVDEIYLQSYRISNDKEIAKFMAKKKVLK,not soluble
14,MPAPQVMPAKVAPLPTSFRGTSVDGSFSVDASGNLLITRDIRNLFDYFLSAVGEEPLQQSLDRLRAYIAAELQEPARGQALALMQQYIDYKKELVLLERDLPRLADLDALRQREAAVKALRARIFSNEAHVAFFADEETYNQFTLERLAIRQDGKLSAEEKAAAIDRLRASLPEDQQESVLPQLQSELQQQTAALQAAGAGPEAIRQMRQQLVGAEATTRLEQLDRQRSAWKGRLDDYFAEKSRIEGNTGLSEADRRAAVERLAEERFSEQERLRLGALEQMRQAEQR,not soluble
15,MPATPVPPVTMPPVPPVGFPPVTAPPGLHPPPPVPPVPVPTLPVTSEHKTAHDACIKRLEQLEIPPDPKIYPSPTEPGTFGSVTEVLTNVFGVEVHKTSNFYQYSVHITAELSSKKEVTFTKKGKEDFIVHDRHEKCSAILFHALNRFEDFFKSSENCIIYDGQSILFTSMNLFEGIPTGKIKTKVFQINGADTNLKDLMVLPCIKLEVFPTKNPVVNFSLEDIGRRTSDSNIESVNMAYKQILDLAMSQYAIRETSKCVVFEHGKMFFINPLQEGYAPCDIVEVGDGKQMKPGLKKTLQFIEGPYGRNQNNPSIVIDGMKVAFHMEQLVFQKLSSITSNLANGITGSERERCAAVIKGLDCHSNYRGRTRHHKIESIHHEGAATARFELEGGGTCTVATYFKDKYKIQLRYPNANLIVCKERGALNFYPMELITISPNQRVRITQQTSSQSQRTTKESAVLPDIRQRLIMTGKIAAKITAENEVLGKMGVTVCDEPLVVKGRNLPAIRLASFETGEHLINPRDCKWRPQRYNRSAVAPKVWALYGVGSPGSQMNRDVMRRFCDEFMNMSRSKGILFPPPGDVNLLTPDAIENRLREAANAGCTFVLCITEDNITCLHQKYKFIEHHTQMIVQDMKLSKALSVVNASKKLTLENVINKTNVKLGGSNYVYLDTKNFLQEHLIIGVGISSPPPGTKYIMESRGILNPTIVGFAYNGNGKQEFSGDFVLNAAGQETIAPIEDIVSYSIKGYKKFHDGKAPKRITIYRSGSSEGNHGPIISYEVPLARVAMRNFSPDTQLLYIVVSKEHTYRFFKKESGGSSSGGSNSAGASNSGTLTSAPPKPWELNIGPGLTVDYGVTNPACKQFFLNSHMTLQGSAKTPLYTVLADDRNIGMSALEEFTFNLCHLHQIVGLPTSIPTPLYVANEYAKRGRNLWNEAINANEIPEVTGPESARLKKMTDGISYMGSGDMIDRRVNA,not soluble
16,MPAVESNMFPLGKQAPPFALTNVIDGNVVRLEDVKSDVATVIMFICNHCPFVKHVQHELVRLANDYMPKGVSFVAINSNDAEQYPEDSPENMKKVAKELGYPFPYLYDETQEVAKAYDAACTPDFYIFDRELKCVYRGQLDDSRPNNGIPVTGESIRAALDALLEGRPVPEKQKPSIGCSIKWKPSA,not soluble
17,MPDAQILSTHEHGVVVALGDIRTADSITTVVAGVGSANPTQWLNYVERAQHIQQATGGAAVAWLGYNAPANVAAAAAQTPAQQGASQLQKFQKELRTLNPKARLMVFGHSYGSVVAGHAVAHGLDADTFIVAGSPGVPPNPQLHSPNPRLISVLGSHDIIGLTGTNTVAAHGIDPSALSAQDAGFERWGVAGGHESYFTDKRLEHHHHHH,not soluble
18,MPDHLQPTLFQDAGKTQASDTFQELLASIAARPKYLPDWPESHRALPNEILRSALFNCRNRNLPRMFLKEVEIAVIGDGQVIYRGEELRQDDELVWMHLMHLIKKSPLGECVEFTPYSFIKALGWPIKGQNYDRLRNCLSRMQATALRIQSKRLHSFVSISLIQKFLSRNERNESLTRWQVWVGKEMQLLFDEEFLTRVMWETRRSLPDGIASKLFGYWASHRKPYPVKVETLLKLCGSGMQTKHFKIELKRALDLLKQSGFLEAWELKDELVVVVRRH,not soluble
19,MPDISIILLGNYAPDQVIHARLLFMRMEQVPGGHHLQILQFRFTIPFRQADFCSLDQSDVMCSETHCYYLMNLKVGAFFETAQNILMIRWLFS,not soluble
